Experiment: yeast display, Sf9 membrane polyspecificity reagent, FACS + sequencing; frameworks hold sequencing errors
How it was run: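 In a synthetic yeast display library (Saccharomyces cerevisiae BJ5465), nanobody expression was induced with galactose for 36–48 hours. FACS gates were set low and high (top ~1%) using anti-HA fluorescence for expression and streptavidin fluorescence for binding of the Sf9 membrane reagent. Each polyreactivity label is drawn from the gate of origin.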

Sequence	polyreactivity (PSR sort gate)
QVQLVESGGGLVQAGGSLRLSCDASGGTFYRNAMGWYRQAHGKERELVAVISKRGTSTYYADSVKGRFTISRDNAKNTVYLQMNSLKPEDTAVYYCATVYYHLSPNRPYGYWGQGTQVTLSS	high polyreactivity
QVQLVESGGGLVQAGGSLRLSCAASGIISSVYAMGWYRQAPGKERELVAAISGSGGSTYYADSVKGRFTISRDNAKNTVYLQMNSLKPEDTAVYYCAKGYQYQGNSYGYWGQGTQVTVSS	low polyreactivity
QVQIVESGGGLVQAGGSLRLSCAASGRTFYFYVMGWYRQAPGKERELVAAISWSGTSTYYADSVKGRFTISRDNAKNTVYLQMNSLKPEDTAVYYCNGITRYDYWGQGTQVTVSS	low polyreactivity
QVQLVESGGRLVQAGGSLRLSCAASGITFLKYALGWYRQAPGKERELVAAISRRGGSTYYADSVKGRFTISRDNAMNTVYLEMNSLKPSDTAVYYCAARTVRGTWSQNDYCGQGTQVTVSS	low polyreactivity
QEQLVESAGGLVQAGGSLRLSCAASGSTFYRYAMGWNRQAPGKERELVAAITSSGGSTYYADSVKGRFTISRDNAKNTVYLQMNRLKPEDTAVYYWNAVRRRQSDYWGQGTQVTVSS	high polyreactivity
QVQLVESGGGLVQAGGSLRLSCAASGIIFWYYAMGWYRPAPGKERELVAAISSGGGTNYADSVKGRFTISRDNAKNTVYLQMNSLKPEDTAVYYCAVASGPELDYWGQGTQVTVSS	low polyreactivity
QVQLVESGGGLVQAGGSLRLSCAASGRTFLYYAMGWYRQAPGKERELVAGITSGGSTNYADSVKGRFTISRDNAKNTVYLQMNSLKPEDTAVYYCAVDQGYSRTADVNYDYWGQGTQVTVSS	low polyreactivity
QVQLVESGGGLVQSRVSLRLSCAASGRTIYVNAMGWYRQAPGKEREFVATISGGGSTKYADSVKGRFTISRDNAKNTVYLQMNSLKPEDTAVYYCARRRERYTADSRGYGYWGQGTQVTVSS	low polyreactivity
QVQLVESGGGLVQAGGSLRLSCAASGSIFARYAMGWYRQAPGKERELVAAISRNGGSTYYADSVKGRFTISRDNAKNTVYLQMNSLKPEDTAVYYCAATQVGHYRIYDYWGQGTQVTVSS	low polyreactivity
QVQLVESVGGLVQAGGSLRLSCAASGSIFGVYVMGWYRQAPGKERELVAAITRGASTNYADSVKGRFTISRDNAKNTVYLQMKSLKPEDTAVYYCAAEWWEEYGYYDDNDYWGQGTQVTVSS	low polyreactivity
QVQLVESGGGLVQAGGSLRLSCAASGRTFQYYVMGWYRQAPGKERELVAAITSAGSTNYADSVKGRFTISRDNAKNTVYLQMNSLKPEDTAVYYCNADLWVNLHNDDDYWGQGTQVTVSS	low polyreactivity
QVQLVESGGGLVQAGGSLRLSCAASGMIFRRYAMGWYRQAPGKERELVAAITSGGSTYYADSVKGRFTISRDNAKKTVYLQMNSLKAEDTAVYSCAAVFYYATYSKKFEYWGQGTQVTVSS	high polyreactivity
QVQLVESAGGLVQEGGSLRLSCAASGSISAPYAMGWYRQAPGKERELVAAISWRGGRTYYADSVKGRFTISRDNAKNTVYLQMNSLKTEDTAVDYCAAKFRLGQFDYDYWGQGTQVTVSS	high polyreactivity
QVQLVESGGGLVQAGGSLRLSCAASGSIFRRYAKGWYRQAPGKERELVAAITNRGGTTYYADSVKGRFTISRDNAKNSVYLQMNSLKPEDTAVYYCNAYYRTKGGFRFGYWGQVTQVTVSS	high polyreactivity
QVQLVESGGGLVQAGGSLRLSCAASGFIFDAYAMGWYRQAPGKERELVAGISIGGRTNYADSVKGRFTISRDNAKNTVYLQMNSLKPEDTAVYYCAARNYRYYYGSYYRGPITNYEYWGQGTQVTVSS	low polyreactivity
QVQLEESGGGLVQAGGSLRLSCAAYGSIFSPYAMGWYRHAPGKERELVAAISGRGTSTYYADSVKGRFTISRDNAKNTVDLQMNTLKPEDTEVYYCAAVSYGRSGYDYWGQGTQVTVSS	high polyreactivity
QVQLVESGGGLVQAGGSLRLTCAASGRTFRSYTMGWYRQAPGKERELVAAISGSGGRTYYADYVKGRFTISRDNAKNNVYLQMNILKPEDTADYYCNKGFTDYHYYYWGQGTQVTVSS	high polyreactivity
QVQLVESGGGLVQAGGSLRLSCAASGFILYSYAMGWYRQAPGKERELVAGISIGGITNYADSVKGRFTISRDNAKNTVYLQMNSLKPEDTAVYYCATDGTTYIWDGDYWGQGTQVTVSS	low polyreactivity
QVQLVEAGGGLVQAGGSLRLSCAASGRTFKGYAMGWYRPAPGKERELVAAITKRGGSTYYADSVKGRFTISRDNAKNTVYLQMNSLKPEDTAVYYCNADKQGSRHGDDYWGQGTQVTVSS	high polyreactivity
QGQLVESGGGLVQAGGSLRLSCAASGGTFRAYVMGWSRQAPGKERELVADISRSGTRTYYADSVKGRFTISRDNAKNTVYLQMNSLKPEDTAVYYCAAAAKSWLFEYWGQGTQVTVSS	high polyreactivity
QVQLVESGGGLVQAGGSLRLSCAASGRIFGGYAMGWYRQAPGKERELVAAISGSGGRTYYADSVKGRFTISRDNAKNTVYLQMNSLKPEDTAVYYCNKGYVYGHEYWGQGTQVTVSS	high polyreactivity
QVQLVESVGGLVQAGGSHRLSCAASGSIFYYYDMGWYRQGPGKERELFAAINRGVGSTFYADSVKGRFTISRENAKNTVYLQMNSLKPEDTAVDYCSSRWYSRTRAYNYWGQGTQVTVSS	low polyreactivity

Sequence	polyreactivity (PSR sort gate)
QVQLVESGGGLVQAGGSLRLSCSAYGSIFYGYAMGWYRQAPGKERELVAAITWSGGSTYYADSVKGRFTISRDIAKNTVYLQMNSLKPEDTAVYYCNALWVWYRGSSVRWVGGYDYWGQGTQVTVSS	high polyreactivity
QVQLEESGGGLVQAGGSLRLSCAASGRTLQRNAMGWYRQAPGKERELVAAISWSGASTYYADSVKGRFTISRDNAKNTVYLQMTSLKPEDTAVYYCAATYIDRGNIYDYWGQGTQVTVSS	high polyreactivity
QVRLVESGGGLVQAGCSRRLSCAATGRFFAYNSMGWYRQAPGKEMEWVAAISSTGGSTYYADSVKGRFTISRDNAKNTVYLQMNSLKTEDTAVYYCAAAWCYRYSSYDYWGQGTQVTVSS	low polyreactivity
QVQLVESGGGLVQAGGSLRLICAASGFTINYYVMGWYRQAPGKERELVAAISGRGGSTYYADSVTGRFTISRDNAKNTVYLQMNSLNPEETAVYYCNKVFSIPWQGVRFDFWGQGTQVTVSS	high polyreactivity
QVQLVESGGGIVQAGGRLRLSCAASGSIFYYYAKGWYRQAPGTERELVASINSGVSTYYADSVKGRFTNSRDNAKNTVYLQMNSLKPVDTAVYYCAAPGHNLYGSWFSWTPDTYDYWGQGNQVTVSS	low polyreactivity
QVQLVESGGGLVQAGGSLRLTCAASGRIFIYYAMGWYRQAPGKERELVAAISWGGGRTYYADSVKGRFTISRDNAKNTVYLQMNSLKPEDTAVYYCAAGVYTGQHEYDYWGQGTQVTVSS	low polyreactivity
QVQLVESGGGLVLAGGSLRLSCAASGSTFEYNAMGWYRPAPGKERELVASSTNYADSVKGRFTISRDNAKNTVSLQRNSLKPEDTAVNYSAREQGVNRNHDYWGQGTQVTVSS	low polyreactivity
QVQLQERGGVLVQAGGSLRLSCAASGTISYAPHMGWYRQATGKERELVAGITIGGTTYYADSVKGRFTISRDNAIHTVYLHMNSLCRGDTAVYFFAAHSEQYTPFYYWGQGTQLTVSS	low polyreactivity
QVQLVESGGGLVQAGGSLRLSCAASGIIFDYNAMGWYRQAPGKERELVAAISGRSGRTYYADSVKGRFTISRDNAMNTVYLQMNSLKPEDTAVYYCAARWYAGGNYWGQGTQVTVSS	high polyreactivity
QVQLLESGGGLVQAGGSLRLSCAASGSIFLLNAMGWYRQAPGKERELVASISRGGVRTNYADSEKGRFTISRDNAKNTVYLQMISLKPEDTAVYYCAAGTRPFGYRRDYWGQGTQVTVSS	high polyreactivity
QVQLVDSVGGLVQAGGTHRLSCAASGSIFEIYAMGWYRQAPGKERELVASITSSGGSTYYADSVKGRFTISRDYAKNTVYLQMNSLKPEDTAVYYCATDKRYGRTVRMDYWGQGTQVTVSS	low polyreactivity
RVQLVESGGGLVQAGGSLRLSCAASGFTIQRYAMGWYRQAPGKVRELVAGITGGGNTKYADSVKGRFTISRDNAKNTVYLQMNSLKPEDTAVYYCAARGGVPRGKFGYDYWGQGTQVTVSS	high polyreactivity
QVQLVESGGGLVQAGGSLRLSCAASGSTFRKYAMGWYRQAPGKEREFVAAITWSTGTTYYADSVKGRFTISRDNAKNTVYLQMNSLKPEDTAVYYCNAAFWAPQAPCYYYWGQGTQVTVSS	low polyreactivity
QVQLVESGGGLVQAGGSLRLSCASSGRTFLVNAMGSYRPAPGKERELVAAISQSGGSTYYADSVKGRFTISRDNAKNTVYLQMNCLKPVDTEVYYCAAELINDYYWGQGTQVSVSS	low polyreactivity
QVQLVESGGGLVQAGGSLRLSCAASRSIFVRNAMGWYRPAPGKERELVAAITSDVNTYYADSVKGRFTISRDNAKNTVYLQMNSLKPEDTAVYYCAKGVTSQPNDPAPFPRYEYWGQGTQVTVSS	low polyreactivity
QVQLVESGGPLVQSGGSLRIICPASGSTFRYYSMGWYRQAPGKERELVAAISYGGGITNYADSVKGRLTISRDNAKNTVYLQMNSLKPEDTAVYYCAAYDRITRYDYWGQGTQVTVSS	high polyreactivity
QVQLVESGGGLVQAGGSLRLSCAASGSIFYGYAMGWYRQAPGKERELVATITSGDSTNYADSVKGRFTISRDNAKNTVYLQMNSLKPEDTAVYYCAADPAHYVFWYGRYGYDYWGQGTQVTVSS	low polyreactivity
QVQLVESGGGLVQAGGSLRLSCSASGRILVLNAMGWYRQAPGTERELVADITSGGSTYYADSVKGRFTISRDNAKNTVYLQMNSLKPEDTAVYYCAADWNTYPDYQQSYFVSYEYNYWGQGTQVTVSS	low polyreactivity
QVQLVESGGGLVQAGGSLRLSCADSGSIFWGNAMGWYRQAPGKERELVAAITRGGSTYYADSVKGRFTISRDNAKNTVYLQMNSLTPEDTAVYYWAVLSRRYAAYDYWGLGTQVTVSS	high polyreactivity
QVQLVESGGGLVQAGGSLRLSCAASGSTFAYYAMGWSRQAPGKERELVASISWRGGSTYYADSVKGRFTNSRDNAKNTVYLQMNSLKPEDTAVYYCAAGRFYIWSRSQEYDYWGQGTQVTVSS	low polyreactivity
QVQLVESGGGLVQAGGSLRLSCAASGSNFAVYAMGWYRQAPGKERELVAAISFSGGSTYYADSVKGRFTISRDNAKNTVYLQMNSLKPEDTAVYYCAADPWWTRTDLDYWGQGTQVTVSS	low polyreactivity
